Test results: PMC12084609, “Structural insights into small-molecule agonist recognition and activation of complement receptor C3aR” (The EMBO Journal, 2025)
Residue numbers refer to the chain shown, from its start. Values joined by “and” are separate entries in the source; they are usually repeats but may differ in a detail not shown here. Equal values may be shown once. Read-outs that look alike come from different tables or passages of the source.

Tests used:
Assay type in all cases: cell-based
C3aR S26^1.35A = biological target: T1, C3aR S26^1.35A (Homo sapiens, UniProt Q16581, S26A); assay: GloSensor-based cAMP assay, C3aR mutant S26A; details: for Mean Diff. of pIC50, WT vs. S26A: Dunnett's multiple comparisons test, WT minus mutant; for ΔpIC50 ± SE of Diff.: S26^1.35A relative to WT C3aR; for cAMP response (% Forskolin): S261.35A
T1 construct: expressed in transfected cells; host or cells: HEK293T
T1 sequence (Q16581 1-482 S26A): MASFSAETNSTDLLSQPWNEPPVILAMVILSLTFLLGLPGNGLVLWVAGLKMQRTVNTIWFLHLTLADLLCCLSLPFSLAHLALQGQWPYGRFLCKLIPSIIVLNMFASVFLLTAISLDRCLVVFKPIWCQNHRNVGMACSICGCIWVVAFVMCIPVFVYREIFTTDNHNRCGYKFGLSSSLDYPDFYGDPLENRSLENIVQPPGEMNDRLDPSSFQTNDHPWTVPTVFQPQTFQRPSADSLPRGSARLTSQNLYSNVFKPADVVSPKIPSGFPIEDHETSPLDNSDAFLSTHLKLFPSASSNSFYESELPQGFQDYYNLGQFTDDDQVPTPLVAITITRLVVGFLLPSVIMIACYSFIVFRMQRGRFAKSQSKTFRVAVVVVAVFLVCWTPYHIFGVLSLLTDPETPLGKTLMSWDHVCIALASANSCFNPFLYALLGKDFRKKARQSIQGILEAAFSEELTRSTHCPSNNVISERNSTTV
Description: (§1) HEK293T cells were seeded on 6-well plates (NEST) and transfected with pGlosensor™-22F plasmids (Promega) and pcDNA3.1 plasmids encoding C3aR or its mutants an with N-terminal FLAG tag. After 48 h, cells were detached with Accutase solution (Sigma-Aldrich) and washed with PBS, and resuspended in assay buffer (CO2-independent medium with 0.5 mg mL^−1D-luciferin). 100,000–200,000 cells were seeded on 96-well white bottom plates (SPL) and incubated at 37 °C for 45 min followed by 45 min incubation at room temperature. After 90 min of incubation, basal luminescence signals were recorded. In total, 25 μl of test ligand with various concentrations and 1 μM Forskolin (Sigma-Aldrich) were treated to the cells and luminescence signals were measured by Tristar 2 LB 942 multimode reader (Berthold). […] Relative luminescence unit (%) was calculated with the signal of wells treated with vehicle as 0% and the signal of wells treated with 1 μM Forskolin as 100% (DiRaddo et al, [2014]). Nonlinear regression was performed using a three-parameter logistic equation.

C3aR P99^3.29A = biological target: T2, C3aR P99^3.29A (Homo sapiens, UniProt Q16581, P99A); assay: GloSensor-based cAMP assay, C3aR mutant P99A; details: for Mean Diff. of pIC50, WT vs. P99A: Dunnett's multiple comparisons test, WT minus mutant; for ΔpIC50 ± SE of Diff.: P99^3.29A relative to WT C3aR; for cAMP response (% Forskolin): P993.29A
T2 construct: expressed in transfected cells; host or cells: HEK293T
T2 sequence (Q16581 1-482 P99A): T1 sequence (Q16581 1-482 S26A) with A26S, P99A
Description: as §1

C3aR M106^3.36A = biological target: T3, C3aR M106^3.36A (Homo sapiens, UniProt Q16581, M106A); assay: GloSensor-based cAMP assay, C3aR mutant M106A; details: for Mean Diff. of pIC50, WT vs. M106A: Dunnett's multiple comparisons test, WT minus mutant; for ΔpIC50 ± SE of Diff.: M106^3.36A relative to WT C3aR; for cAMP response (% Forskolin): single replicates
T3 construct: expressed in transfected cells; host or cells: HEK293T
T3 sequence (Q16581 1-482 M106A): T1 sequence (Q16581 1-482 S26A) with A26S, M106A
Description: as §1

[1] = Log[C3a (M)] -7, single replicates
[2] = Log[C3a (M)] -8, single replicates
[3] = Log[C3a (M)] -9, single replicates
[4] = Log[C3a (M)] -10, single replicates
[5] = Log[C3a (M)] -11, single replicates
[6] = Log[C3a (M)] -12, single replicates

Cc1cc(C(c2ccc(Cl)cc2)c2ccc(Cl)cc2)sc1C(=O)N[C@@H](CCCNC(=N)N)C(=O)O [JR14a, reference compound]
Mean Diff. of pIC50, WT vs. S26A (C3aR S26^1.35A): -0.137
IC50 (C3aR S26^1.35A; IC50, S26^1.35A, dose-response plot): 5.58 nM
remaining activity at 1 µM (C3aR S26^1.35A; S26A, Log[JR14a (M)] -6, single replicates, read-out: cAMP response (% Forskolin)): 7.75%
remaining activity at 0.1 µM (C3aR S26^1.35A; S26A, Log[JR14a (M)] -7, single replicates, read-out: cAMP response (% Forskolin)): 8.58%
remaining activity at 0.0001 µM (C3aR S26^1.35A; S26A, Log[JR14a (M)] -10, single replicates, read-out: cAMP response (% Forskolin)): 91.9%
remaining activity at 10 pM (C3aR S26^1.35A; S26A, Log[JR14a (M)] -11, single replicates, read-out: cAMP response (% Forskolin)): 96.7%
ΔpIC50 ± SE of Diff. (C3aR S26^1.35A): 0.14 ± 0.07
IC50 (C3aR S26^1.35A; pIC50 (Replicate), S26^1.35A, individual replicates): 1.62 nM and 4.57 nM and 7.41 nM
IC50 (C3aR S26^1.35A; pIC50 ± SEM (Mean), S26^1.35A, mean of independent experiments): 3.8 nM
Mean Diff. of pIC50, WT vs. P99A (C3aR P99^3.29A): -0.103
IC50 (C3aR P99^3.29A; IC50, P99^3.29A, dose-response plot): 4.08 nM
remaining activity at 1 µM (C3aR P99^3.29A; P99A, Log[JR14a (M)] -6, single replicates, read-out: cAMP response (% Forskolin)): 8.38%
remaining activity at 0.1 µM (C3aR P99^3.29A; P99A, Log[JR14a (M)] -7, single replicates, read-out: cAMP response (% Forskolin)): 9.9%
remaining activity at 0.001 µM (C3aR P99^3.29A; P99A, Log[JR14a (M)] -9, single replicates, read-out: cAMP response (% Forskolin)): 77.4%
remaining activity at 0.0001 µM (C3aR P99^3.29A; P99A, Log[JR14a (M)] -10, single replicates, read-out: cAMP response (% Forskolin)): 102%
remaining activity at 10 pM (C3aR P99^3.29A; P99A, Log[JR14a (M)] -11, single replicates, read-out: cAMP response (% Forskolin)): 104%
ΔpIC50 ± SE of Diff. (C3aR P99^3.29A): 0.10 ± 0.06
decrease in IC50 values vs WT (C3aR P99^3.29A; P99^3.29 to Ala, relatively mild effect on downstream signaling): < 10 fold
IC50 (C3aR P99^3.29A; pIC50 (Replicate), P99^3.29A, individual replicates): 4.9 nM and 5.25 nM and 2.69 nM
Mean Diff. of pIC50, WT vs. M106A (C3aR M106^3.36A): -0.207
IC50 (C3aR M106^3.36A; IC50, M106^3.36A, dose-response plot): 3.24 nM
ΔpIC50 ± SE of Diff. (C3aR M106^3.36A): 0.21 ± 0.09
IC50 (C3aR M106^3.36A; pIC50 (Replicate), M106^3.36A, individual replicates): 3.63 nM and 7.41 nM and 1.29 nM

C3a: anaphylatoxin C3a, natural peptide ligand of C3aR (a 77-amino acid peptide), Sigma-Aldrich
Mean Diff. of pIC50, WT vs. S26A (C3aR S26^1.35A): 0.018
ΔpIC50 ± SE of Diff. (C3aR S26^1.35A): -0.018 ± 0.007
IC50 (C3aR S26^1.35A; S26^1.35A, dose-response plot, read-out: IC50): 2.4 nM
pIC50 (Replicate) (C3aR S26^1.35A; S26^1.35A, individual replicates): 8.46 and 8.90 and 8.92 and 8.44
pIC50 ± SEM (Mean) (C3aR S26^1.35A; S26^1.35A, mean of independent experiments): 8.68
cAMP response (% Forskolin) (C3aR S26^1.35A; [1]): 6.63 % Forskolin and 16.74 % Forskolin and 7.89 % Forskolin and 6.95 % Forskolin
cAMP response (% Forskolin) (C3aR S26^1.35A; [2]): 10.18 % Forskolin and 21.44 % Forskolin and 11.61 % Forskolin and 10.34 % Forskolin
cAMP response (% Forskolin) (C3aR S26^1.35A; [3]): 93.63 % Forskolin and 62.67 % Forskolin and 56.93 % Forskolin and 99.13 % Forskolin
cAMP response (% Forskolin) (C3aR S26^1.35A; [4]): 100.97 % Forskolin and 93.52 % Forskolin and 93.48 % Forskolin and 106.03 % Forskolin
cAMP response (% Forskolin) (C3aR S26^1.35A; [5]): 99.94 % Forskolin and 102.62 % Forskolin and 98.56 % Forskolin and 106.48 % Forskolin
cAMP response (% Forskolin) (C3aR S26^1.35A; [6]): 101.64 % Forskolin and 96.07 % Forskolin and 97.79 % Forskolin and 99.89 % Forskolin
Mean Diff. of pIC50, WT vs. P99A (C3aR P99^3.29A): 0.364
ΔpIC50 ± SE of Diff. (C3aR P99^3.29A): -0.36 ± 0.06
IC50 (C3aR P99^3.29A; P99^3.29A, dose-response plot, read-out: IC50): 6.44 nM
pIC50 (Replicate) (C3aR P99^3.29A; P99^3.29A, individual replicates): 8.35 and 8.23 and 8.15
pIC50 ± SEM (Mean) (C3aR P99^3.29A; P99^3.29A, mean of independent experiments): 8.18
cAMP response (% Forskolin) (C3aR P99^3.29A; [1]): 12.82 % Forskolin and 13.55 % Forskolin and 15.36 % Forskolin and 12.84 % Forskolin
cAMP response (% Forskolin) (C3aR P99^3.29A; [2]): 28.00 % Forskolin and 35.91 % Forskolin and 53.45 % Forskolin and 42.74 % Forskolin
cAMP response (% Forskolin) (C3aR P99^3.29A; [3]): 95.96 % Forskolin and 92.86 % Forskolin and 104.37 % Forskolin and 97.87 % Forskolin
cAMP response (% Forskolin) (C3aR P99^3.29A; [4]): 102.35 % Forskolin and 93.68 % Forskolin and 104.69 % Forskolin and 98.88 % Forskolin
cAMP response (% Forskolin) (C3aR P99^3.29A; [5]): 98.97 % Forskolin and 94.82 % Forskolin and 109.09 % Forskolin and 99.84 % Forskolin
cAMP response (% Forskolin) (C3aR P99^3.29A; [6]): 103.44 % Forskolin and 97.11 % Forskolin and 100.69 % Forskolin and 103.75 % Forskolin
Mean Diff. of pIC50, WT vs. M106A (C3aR M106^3.36A): 0.034
cAMP response (% Forskolin) (C3aR M106^3.36A; M106A, Log[C3a (M)] -7): 8.75 % Forskolin and 12.90 % Forskolin and 9.09 % Forskolin
cAMP response (% Forskolin) (C3aR M106^3.36A; M106A, Log[C3a (M)] -8): 9.11 % Forskolin and 12.58 % Forskolin and 9.15 % Forskolin
cAMP response (% Forskolin) (C3aR M106^3.36A; M106A, Log[C3a (M)] -9): 42.52 % Forskolin and 48.08 % Forskolin and 24.26 % Forskolin
cAMP response (% Forskolin) (C3aR M106^3.36A; M106A, Log[C3a (M)] -10): 70.86 % Forskolin and 84.09 % Forskolin and 59.73 % Forskolin
cAMP response (% Forskolin) (C3aR M106^3.36A; M106A, Log[C3a (M)] -11): 100.00 % Forskolin and 94.62 % Forskolin and 93.38 % Forskolin
cAMP response (% Forskolin) (C3aR M106^3.36A; M106A, Log[C3a (M)] -12): 103.69 % Forskolin and 97.63 % Forskolin and 101.57 % Forskolin
ΔpIC50 ± SE of Diff. (C3aR M106^3.36A): -0.03 ± 0.03
pIC50 (Replicate) (C3aR M106^3.36A; M106^3.36A, individual replicates): 8.59 and 8.68 and 8.47 and 8.31
cAMP response (% Forskolin) (C3aR M106^3.36A; M1063.36A, Log[C3a (M)] -7): 12.14 % Forskolin and 11.95 % Forskolin and 11.63 % Forskolin and 13.11 % Forskolin
cAMP response (% Forskolin) (C3aR M106^3.36A; M1063.36A, Log[C3a (M)] -8): 15.30 % Forskolin and 16.36 % Forskolin and 17.61 % Forskolin and 30.65 % Forskolin
cAMP response (% Forskolin) (C3aR M106^3.36A; M1063.36A, Log[C3a (M)] -9): 79.42 % Forskolin and 72.88 % Forskolin and 85.10 % Forskolin and 95.05 % Forskolin
cAMP response (% Forskolin) (C3aR M106^3.36A; M1063.36A, Log[C3a (M)] -10): 93.61 % Forskolin and 101.94 % Forskolin and 98.48 % Forskolin and 102.99 % Forskolin
cAMP response (% Forskolin) (C3aR M106^3.36A; M1063.36A, Log[C3a (M)] -11): 97.40 % Forskolin and 101.43 % Forskolin and 95.22 % Forskolin and 99.89 % Forskolin
cAMP response (% Forskolin) (C3aR M106^3.36A; M1063.36A, Log[C3a (M)] -12): 100.17 % Forskolin and 94.23 % Forskolin and 92.07 % Forskolin and 95.27 % Forskolin
